Results as given in the supplement of paper PMC9170038.

How the values were obtained:
MS2 coat protein [1] = assay: apparent KD of MS2 coat protein, switch OFF state (with FMN for OFF switches, without FMN for ON switches); designed switch direction (-1 OFF switch, 1 ON switch): 1; higher = weaker reporter binding; details: FMN input: 0 or 200 uM; Eterna round: R93 (includes R88 designs)
Outline: (§1)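 Apparent KD per design is the median of normalised cluster binding-curve fits. Designed RNA switches transcribed on-chip from Illumina sequencing clusters were titrated with SNAP-549-labelled MS2 coat protein in twofold steps from 0.7 or 1.5 nM to 3 µM, with 0.8–1.5 h down to 10–20 min per step. Buffer: 100 mM Tris-HCl pH 7.5, 80 mM KCl, 4 mM MgCl2, without or with constant ligand.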

MS2 coat protein [2] = assay: apparent KD of MS2 coat protein, switch ON state; designed switch direction (-1 OFF switch, 1 ON switch): 1; higher = weaker reporter binding; details: FMN input: 0 or 200 uM; Eterna round: R93 (includes R88 designs)
Outline: as §1

Sequence | apparent KD of MS2 coat protein (MS2 coat protein [1]) [nM] | apparent KD of MS2 coat protein (MS2 coat protein [2]) [nM]
AGGAAACAUGAGGAUCACCCAUGUAAAAAUAACACAGGAUAUGGAAACACGAAAGUGAAACCAGAAGGGUGAAAAG [77%, Mat - Mod of Eli, 16] | 26.1 | 17.8
AGGAAACAUGAGGAUCACCCAUGUGUAAAAAAUACAGGAUAUGGAAACACGAAAGUGAAACCAGAAGGGUAAAAAA [77%, Mat - Mod of Eli, 31] | 19 | 13.4
AGGAGACAUGAGGAUCACCCAUGUGAGAAGAGGCGAGGAUAUCGAAAGAAAGAAGAGAAACGAGAAGGCGCGAGAU [salish99-SS1-021] | 38.7 | 25.1
AUAAAACAUGAGGAUCACCCAUGUAAUAAGAACCGAGGAUAUGGAAAUAAUAAUAAUAAACCAGAAGGUGGUGAUC [Meechl MS2 SS1] | 105 | 110
AUAAAAUAAAGUCAGGAUAUCCAUAAUAAAACAUGAGGAUCACCCAUGUUAAAAAAAAGAUCAUGGGAGAAGGGACAAAAUAAAU [SS2 M 33] | 57.6 | 28.6
AUAACACAUGAGGAUCACCCAUGUAGAAACAAGUCAGGAUAUGCAACCUCAUGAAAUAAAGCAGAAGGGACAAUAA [SS 1 Tesla 4] | 88 | 26.4
AUAAUAUUAAGCUAGGAUAUACUAAAGUAAACAUGAGGAUCACCCAUGUAAAAAAAAAAACUCAUGUAGAAGGAGCAUAAAUAAA [moonwalk 9] | 15 | 12.2
AUAUGAGCUAUGGAGGAUAUCCACAAUAAAACAUGAGGAUCACCCAUGUAAGAAAGAAAAGAAUGGGAGAAGGCCAUAGCUCAAU [SS 2 M45] | 17.5 | 7.54
AUAUGAUCAUGUGAGGAUAUCCAUAAUAAAACAUGAGGAUCACCCAUGUAUAGAUAAUAAUAAUGGGAGAAGGCACAUGAUCAAU [SS 2 M41] | 17.9 | 21.6
AUCAGGAAGAGAGAGGAUAUCCAAAGGAAAACAUGAGGAUCACCCAUGUAAAAGGUAGGAAAUUGGGAGAAGGCUCAAGAGAGAG [salish99-ss2-093] | 29.3 | 26.4
AUGAAUAGCAUCGAGGAUAUCCAGUCAUGCACAUGAGGAUCACCCAUGUAAGAGAGAGUAUAAUGGGAGAAGGCGAGUACUCGAU [JR_SS002_Sub1704] | 69.4 | 82
AUGGUCAAGUGUGAGGAUAUCCAGGCUCCCACAUGAGGAUCACCCAUGUUUAUUAGAGCGUAAAGGGAGAAGGUACGAACGCCAU [Esbibiti] | 26.9 | 15.6
AUGGUGCAGGUACAGGAUAUGUUGCUCGUAACAUGAGGAUCACCCAUGUACCUAUGAGAUUAAAUGCAGAAGGGUGCACACCACG [Quorra] | 1480 | 43.5
AUUCCAAAUAGUCAGGAUAUCAAAAAUAAGACAUGAGGAUCACCCAUGUACUUAGUAAAAGUAAAUGAGAAGGGACAGGGUGUAA [JR_SS002_Sub404] | 19.4 | 12.9
CAAACAACAGCACAGGAUAUCCAUAUAAUAACAUGAGGAUCACCCAUGUAAGCGGAAAAUAACGCGGAGAAGGGUGAACACACAA [Default title] | 35.1 | 130
CAUCAACAUGAGGAUCACCCAUGUCAGUGAUGUCAAGGAUAUGGGAGACAUAAAAUUCUUCUAGAAGGUGAAAGAU [Orlaanar] | 125 | 209
CCGAUGGUAUACUAGGAUAUGGGCGCCCUUACAUGAGGAUCACCCAUGUUUACACAAAUCCGCGGCCAGAAGGAGUUCAUGGGAG [Orgere] | 163 | 90.3
CGAAAGGAGAGAGAGGAUAUCCAAAGGAAAACAUGAGGAUCACCCAUGUAGAAGGUAGGAGAUUGGGAGAAGGCUCAAGCUAAAC [salish99-ss2-158] | 37.3 | 40.2
CGAGUACAUGAGGAUCACCCAUGUUAUGAAUUGUCAGGAUAUGGAUAAAGGUGACAUGCGCCAGAAGGGACGUAUG [JR_SS001_Sub1006] | 43.7 | 36.9
